From publication PMC8034659 come the findings set out here.

Common to all, as to test: SPR
On the technique in general: In SPR one partner is held on a chip, and binding of the other changes the refractive index at the surface.

One data set has as its target T1, TrfA R169E (plasmid RK2, UniProt P07676 98-382, R169E;G254D;S267L).
T1 sequence: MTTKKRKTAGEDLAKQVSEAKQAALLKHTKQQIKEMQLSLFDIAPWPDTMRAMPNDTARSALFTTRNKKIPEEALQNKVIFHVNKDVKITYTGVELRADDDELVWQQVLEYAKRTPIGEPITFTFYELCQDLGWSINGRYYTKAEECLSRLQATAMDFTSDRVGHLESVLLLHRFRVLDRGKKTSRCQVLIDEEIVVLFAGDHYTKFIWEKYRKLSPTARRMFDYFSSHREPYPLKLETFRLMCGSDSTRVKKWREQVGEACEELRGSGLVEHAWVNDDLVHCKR

The target of a further data set is T2, TrfA R236E (plasmid RK2, UniProt P07676 98-382, R236E;G254D;S267L).
T2 sequence: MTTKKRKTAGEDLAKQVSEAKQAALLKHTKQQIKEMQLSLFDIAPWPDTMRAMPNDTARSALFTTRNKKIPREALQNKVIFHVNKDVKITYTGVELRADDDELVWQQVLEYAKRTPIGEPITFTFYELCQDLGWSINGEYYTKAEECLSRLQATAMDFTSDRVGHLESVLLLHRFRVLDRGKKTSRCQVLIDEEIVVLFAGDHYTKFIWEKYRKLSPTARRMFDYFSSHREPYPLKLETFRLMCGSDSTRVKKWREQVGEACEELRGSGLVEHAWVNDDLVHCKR

Another data set has as its target T3, TrfA A171T (plasmid RK2, UniProt P07676 98-382, A171T;G254D;S267L).
T3 sequence: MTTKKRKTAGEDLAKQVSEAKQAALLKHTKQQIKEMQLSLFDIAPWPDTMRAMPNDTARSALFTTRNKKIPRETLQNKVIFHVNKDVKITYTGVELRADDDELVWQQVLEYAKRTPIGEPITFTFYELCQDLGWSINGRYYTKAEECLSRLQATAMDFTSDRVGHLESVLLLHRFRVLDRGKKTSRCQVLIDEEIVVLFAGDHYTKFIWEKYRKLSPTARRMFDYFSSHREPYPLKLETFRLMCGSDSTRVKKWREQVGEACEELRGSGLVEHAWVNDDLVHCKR

Another data set concerns the target T4, TrfA P151S/E361K (plasmid RK2, UniProt P07676 98-382, P151S;G254D;S267L;E361K).
T4 sequence: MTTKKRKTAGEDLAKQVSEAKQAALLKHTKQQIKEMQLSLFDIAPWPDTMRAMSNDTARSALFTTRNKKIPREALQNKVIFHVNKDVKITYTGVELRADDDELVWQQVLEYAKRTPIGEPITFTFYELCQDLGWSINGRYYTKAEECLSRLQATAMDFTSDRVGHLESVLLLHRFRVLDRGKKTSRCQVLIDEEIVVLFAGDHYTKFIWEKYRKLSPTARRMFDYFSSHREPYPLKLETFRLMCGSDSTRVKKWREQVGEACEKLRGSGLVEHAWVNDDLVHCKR

The next data set addresses T5, TrfA T105E (plasmid RK2, UniProt P07676 98-382, T105E;G254D;S267L).
T5 sequence: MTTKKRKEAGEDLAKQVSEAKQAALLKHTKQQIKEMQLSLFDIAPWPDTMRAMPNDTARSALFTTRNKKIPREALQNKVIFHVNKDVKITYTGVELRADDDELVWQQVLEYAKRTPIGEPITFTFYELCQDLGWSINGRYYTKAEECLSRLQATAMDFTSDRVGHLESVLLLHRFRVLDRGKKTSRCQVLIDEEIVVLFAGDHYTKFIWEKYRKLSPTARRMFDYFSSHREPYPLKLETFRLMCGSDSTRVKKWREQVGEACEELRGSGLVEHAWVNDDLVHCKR

For another data set, the target named is T6, TrfA N234E (plasmid RK2, UniProt P07676 98-382, N234E;G254D;S267L).
T6 sequence: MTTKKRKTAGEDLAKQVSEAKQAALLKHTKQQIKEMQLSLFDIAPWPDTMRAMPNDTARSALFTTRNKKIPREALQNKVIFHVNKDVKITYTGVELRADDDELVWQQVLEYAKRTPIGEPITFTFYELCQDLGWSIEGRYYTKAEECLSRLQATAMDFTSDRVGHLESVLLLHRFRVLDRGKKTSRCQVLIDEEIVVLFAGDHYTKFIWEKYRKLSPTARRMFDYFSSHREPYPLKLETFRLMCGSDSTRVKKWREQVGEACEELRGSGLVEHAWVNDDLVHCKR

The target of a further data set is T7, TrfA P168E (plasmid RK2, UniProt P07676 98-382, P168E;G254D;S267L).
T7 sequence: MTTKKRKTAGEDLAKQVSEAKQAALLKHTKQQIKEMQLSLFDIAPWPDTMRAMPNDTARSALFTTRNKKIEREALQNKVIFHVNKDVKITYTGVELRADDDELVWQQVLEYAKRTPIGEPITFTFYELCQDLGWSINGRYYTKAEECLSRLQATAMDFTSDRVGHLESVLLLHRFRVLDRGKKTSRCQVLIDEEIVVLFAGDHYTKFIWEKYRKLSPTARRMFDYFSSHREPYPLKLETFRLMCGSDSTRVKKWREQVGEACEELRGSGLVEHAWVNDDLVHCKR

B1: five RK2 iterons (ItT/ItB) (dsDNA)
DNA 1: CCTGCGGTATTGACACTTGAGGGGCGCGACTACTGACAGATGAGGGGCGCGATCCTTGACACTTGAGGGGCAGAGTGATGACAGATGAGGGGCGCACCTATTGACATTTGAGGGGCTGTCCACAGGCAG
DNA 2: CTGCCTGTGGACAGCCCCTCAAATGTCAATAGGTGCGCCCCTCATCTGTCATCACTCTGCCCCTCAAGTGTCAAGGATCGCGCCCCTCATCTGTCAGTAGTCGCGCCCCTCAAGTGTCAATACCGCAGG
Take B1: the binding result is recorded as “no binding” with TrfA R169E; “no binding” in the data set with TrfA R236E; “binds” with TrfA A171T; “binds” with TrfA P151S/E361K; “binds” with TrfA T105E; “no binding” with TrfA N234E. In addition, the binding result with TrfA P168E is “binds”.
